Laboratory results from patent US6602687B1, “DNA encoding human ciliary neurotrophic factor and method for producing the protein encoded thereby” (Regeneron Pharmaceuticals, Inc., priority 1989, dated 2003).

B1: NGF: mouse nerve growth factor (protein, UniProt P01139 122-241, looked up)
Beta-nerve growth factor: SSTHPVFHMGEFSVCDSVSVWVGDKTTATDIKGKEVTVLAEVNINNSVFRQYFFETKCRASNPVESGCRGIDSKHWNSYCTTTHTFVKALTTDEKQAAWRFIRIDTACVCVLSRKATRRG
B2: recombinant human CNTF: human ciliary neurotrophic factor expressed in E. coli (protein, UniProt P26441 1-200, looked up)
Ciliary neurotrophic factor: MAFTEHSPLTPHRRDLCSRSIWLARKIRSDLTALTESYVKHQGLNKNINLDSADGMPVASTDQWSELTEAERLQENLQAYRTFHVLLARLLEDQQVHFTPTEGDFHQAIHTLLLQVAAFAYQIEELMILLEYKIPRNEADGMPINVGDGGLFEKKLWGLKVLQELSQWTVRSIHDLRFISSHQTGIPARGSHYIANNKKM

Experiments:
[1] = test system: GABAergic neurons (hippocampal cultures); test: Effect of other neurotrophic factors on GABAergic hippocampal neurons in culture; assay type: cell-based, rat
Experimental: Hippocampi were dissected from E18-19 rat embryos of Sprague-Dawley rats, and collected in F10 medium. The tissues were minced, rinsed twice with F10 medium (Gibco) and trypsinized with 0.25% trypsin (Gibco) for 20 minutes at 37° C. Trypsin was inactivated by the addition of a serum-containing medium composed of minimal essential medium (MEM) supplemented with fetal calf serum (FCS, 10%), glutamine (2 mM), penicillin (25 U/ml) and streptomycin (25 ug/ml). Dissociated cells obtained by gentle trituration were collected and centrifuged at low speed (500 rpm) for 30 seconds. The centrifugation was repeated twice, and the cell pellets were then resuspended in serum-containing medium. The cells were then plated onto 6 mm wells or 35 mm dishes that were coated with polyornithine (10 ug/ml) and laminin (10 ug/ml). In most of the experiments, the cells were plated at a low density of approximately 71,000 cells/cm^2. Five to six hours following the plating of cells, medium was changed to a serum-free medium containing 1% N3 and penicillin-streptomycin (25 units/ml and 25 ug/ml, respectively), at which time CNTF was added. Medium was changed every three to four days, with re-addition of the factor. […]

[2] = test system: Mediodorsal (MD) spinal cord neurons; test: E14 rat mediodorsal spinal cord neuron cultures in defined medium; assay type: cell-based; details: CNTF 2 μl/ml (recombinant rat, E. coli extract), NGF 50 ng/ml at plating; day 7; Bradford
Text: (§1) Sprague-Dawley rats (HSD) were used for all experiments. Pregnant rats were sacrificed by carbon dioxide asphyxiation, and the embryos were rapidly removed and placed in ice-cold Puck's saline G for further dissection.
(§2) Spinal cords were removed aseptically from rat embryos on the 14th day of gestation. The spinal cord was severed caudal to the bulb, freed of sensory ganglia and meninges. The cord was then subdivided into ventral and mediodorsal segments for separate cultures. The cord tissues were minced into small pieces and mechanically dissociated by trituration through a Pasteur pipet in defined culture medium consisting of 50% basal medium Eagle (BME; Gibco) and 50% Ham's nutrient mixture F12 (Gibco) supplemented with glucose (33 mM), glutamine (2 mM, NaHCO3 (15 mM), HEPES (10 mM), insulin (25 μg/ml), transferrin (100 μg/ml) putrescine (60 μM), progesterone (20 nM), Na selenite (30 nM), penicillin G (0.5 μg/ml), streptomycin (0.5 μg/ml), and bovine serum albumin (2.5 μg/ml). Trituration was repeated twice and the supernatants were pooled and filtered through a nylon (Nitex, Tetko) filter (40 μm). Total cell number yielded was determined by hemocytometer counting in the presence of trypan blue. Dissociated ventral cells were then plated at a density of 0.5 million cells/35 mm dish coated with poly-D-lysine (10 μg/ml). Dissociated mediodorsal cells were plated at a density of 1.5 million/35 mm dish coated with poly-D-lysine (10 μg/ml), poly-L-ornithine (10 μg/ml), or poly-L-ornithine with laminin (5 μg/ml). Treatments to these cultures were added at the time of plating. Cultures were maintained at 37° C. in a 95% air/5% CO2 atmosphere at nearly 100% relative humidity. Culture medium was changed every three to four days.

[3] = test system: Ventral spinal cord neurons; test: Neurofilament (NF) assay in ventral spinal cord neuron cultures; assay type: cell-based, rat; details: CNTF 10 ng/ml, NGF 50 ng/ml at plating; day 7
Experimental: (§3) Sprague-Dawley rats (HSD or Zivic-Miller) were used for all experiments. Pregnant rats (E14) were sacrificed as described in 10.1.1.
Spinal cords were removed aseptically from rat embryos as described in 10.1.2. The cord tissues were minced into small pieces and incubated in 0.1% trypsin (GIBCO) and 0.01% deoxyribonuclease type 1 (Sigma) at 37° C. for 20 minutes. Trypsin solution was then removed, rinsed and replaced with medium consisting of 45% Eagle's minimum essential medium (MEM), 45% Ham's nutrient mixture F12 (F12), 5% fetal calf serum (GIBCO), 5% horse serum (GIBCO) glutamine (2 mM), penicillin G (0.5 U/ml), and streptomycin (0.5 ug/ml). […] Total cell number yielded was determined by hemocytometer counting in the presence of trypan blue. […]
After fixation of the cells in 4% paraformaldehyde at 4° C. for 2 hours, the cultures were then permeabilized and blocked according to the procedures described in Doherty et al. (1984, J. Neurochem. 42:1116-1122). Neurofilament protein was detected using a monoclonal antibody RT97 (Wood and Anderton, 1981, Biosci. Rep. 1:263-268) at a 1:1000 dilution. The reaction product was visualized using O-phenylenediamine (OPD) as a substrate and optical density was measured at 490 nm.

[4] = test system: AchE-containing ventral spinal cord neurons; test: Count of AchE-containing neurons in ventral spinal cord cultures; assay type: cell-based, rat; details: CNTF 10 ng/ml at plating; 7 days
Experimental: as §3
Spinal cords were removed aseptically from rat embryos as described in 10.1.2. The cord tissues were minced into small pieces and incubated in 0.1% trypsin (GIBCO) and 0.01% deoxyribonuclease type 1 (Sigma) at 37° C. for 20 minutes. Trypsin solution was then removed, rinsed and replaced with medium consisting of 45% Eagle's minimum essential medium (MEM), 45% Ham's nutrient mixture F12 (F12), 5% fetal calf serum (GIBCO), 5% horse serum (GIBCO) glutamine (2 mM), penicillin G (0.5 U/ml), and streptomycin (0.5 ug/ml). This was then mechanically dissociated twice by gentle trituration through a Pasteur pipet in the same medium, and the supernatants were pooled and filtered through a nylon filter (Nitex, Tetko; 40 um). Total cell number yielded was determined by hemocytometer counting in the presence of trypan blue. Dissociated ventral cells were then plated at a density of approximately 50,000 cells/cm^2 on dishes coated with poly-L-ornithine (10 ug/ml) and laminin (5 ug/ml). Treatments were given on the day of plating, except for delayed addition experiments in which treatments were given on days 2 or 6. Cultures were maintained at 37° C. in 95% air/5% CO2 atmosphere at nearly 100% relative humidity. Culture medium was changed every 3 to 4 days. […]

[5] = test system: Ventral spinal cord neurons; test: Choline acetyltransferase (CAT) activity in ventral spinal cord cultures; assay type: cell-based, rat; details: CNTF 10 ng/ml, NGF 50 ng/ml, FGF 50 ng/ml at plating; after 7 days in culture
Experimental: as §3
Spinal cords were removed aseptically from rat embryos as described in 10.1.2. The cord tissues were minced into small pieces and incubated in 0.1% trypsin (GIBCO) and 0.01% deoxyribonuclease type 1 (Sigma) at 37° C. for 20 minutes. Trypsin solution was then removed, rinsed and replaced with medium consisting of 45% Eagle's minimum essential medium (MEM), 45% Ham's nutrient mixture F12 (F12), 5% fetal calf serum (GIBCO), 5% horse serum (GIBCO) glutamine (2 mM), penicillin G (0.5 U/ml), and streptomycin (0.5 ug/ml). This was then mechanically dissociated twice by gentle trituration through a Pasteur pipet in the same medium, and the supernatants were pooled and filtered through a nylon filter (Nitex, Tetko; 40 um). Total cell number yielded was determined by hemocytometer counting in the presence of trypan blue. Dissociated ventral cells were then plated at a density of approximately 50,000 cells/cm^2 on dishes coated with poly-L-ornithine (10 ug/ml) and laminin (5 ug/ml). Treatments were given on the day of plating, except for delayed addition experiments in which treatments were given on days 2 or 6. Cultures were maintained at 37° C. in 95% air/5% CO2 atmosphere at nearly 100% relative humidity. Culture medium was changed every 3 to 4 days. A mitotic inhibitor, cytosine arabinoside (Ara C; 0.5 uM), was added on day 2 to reduce the number of nonneuronal cells. On day 7, cells were harvested for measurements of choline acetyltransferase (CAT; Fonnum, 1975 J. Neurochem. 24:407-409) and protein (Bradford, 1976, Annal. Biochem. 72:248-254) levels or fixed in 4% paraformaldehyde for NF assay (Doherty et al., 1984, J. Neurochem. 42:1116-1122) and immunocytochemistry. Some cultures were grown in defined medium consisting of 50% F12 and 50% MEM, glutamine (2 mM), insulin (5 ug/ml), transferrin (100 ug/ml), progesterone (20 nM), putrescine (10 uM), and sodium selenite (30 nM) (Bottenstein and Sato, 1979, PNAS 76:514-517). In these cultures sera-containing medium was replaced with defined medium on day 1.
Cultures were harvested by lysing the cells in a 20 mM Tris-HCl (pH 8.6) solution containing 0.1% Triton X-100. Two microliters of the cell lysate was removed and assayed for CAT activity according to the micro-Fonnum procedure (Fonnum, 1975, J. Neurochem. 24:407-409). The final substrate composition consisted of 0.2 mM [1-^14C] Acetyl-CoA (NEN, 54.4 mCi/mmol), 300 mM NaCl, 8 mM choline bromide, 20 mM EDTA, and 0.1 mM neostigmine in 50 mM NaH2PO4 (pH 7.4) buffer. At these enzyme and substrate concentrations, the enzymatic reaction was linear for 90-120 minutes. The specificity of the induction for CAT was tested by the addition of a specific inhibitor of CAT activity, N-hydroxyethyl-4-(1-napthylvinyl) pyridium (HNP), during the assay (White and Cavallito, 1970, J. Neurochem. 17:1579-1589).

[6] = test system: Ventral spinal cord neurons; test: E14 rat ventral spinal cord neuron cultures in defined medium; assay type: cell-based; details: CNTF 2 μl/ml, NGF 50 ng/ml at plating; day 7
Text: as §1, §2

E10 chick DRG = test: Fiber outgrowth from explants of E10 chick embryo dorsal root ganglia; assay type: cell-based
Experimental: Biological activity of recombinant CNTF was assayed on explants of chick embryo dorsal root ganglia (DRG) and dissociated cultures of ciliary ganglion (CG) neurons as described in Lindsay and Rohrer (1985, Devel. Biol 112:30-48). Briefly, DRG were dissected from chick embryos of 10 days incubation (E10) and 5-6 ganglia were explanted in 1 ml of a collagen gel matrix in 35 mm tissue culture dishes. After the gel had set, 1 ml of tissue culture growth medium F14 (Imperial Labs., U.K.) supplemented with 5% heat-inactivated horse serum (GIBCO) was added before adding human CNTF (1-20 l) to a final concentration of 100 pg to 100 ng/ml. CG were dissected from E8 chick embryos and incubated for 30 min in 0.25% trypsin (Worthington) in calcium- and magnesium-free phosphate buffered saline. […] In explant cultures CNTF activity was determined by assessing the extent of fiber outgrowth in treated cultures compared to controls. Fiber outgrowth was scored on a scale of 0 to 5+, by comparing cultures to photographs of a dose-response of explanted DRG and NGF. In dissociated CG neuron cultures, CNTF activity was determined by counting at 48 hr the percentage of process-bearing neurons in control and CNTF-treated cultures. […]

[7] = test system: E8 chick ciliary ganglion neurons; test: Survival of dissociated E8 chick ciliary ganglion neurons; assay type: cell-based; details: increasing amounts of pure protein
Text: Ciliary neurotrophic factor activity may be evaluated using any CNTF-sensitive in vivo or in vitro system known in the art. For example, and not by way of limitation, in vitro systems have been developed which measure CNTF activity by quantitating 24-hour survival of embryonic (E8) chick ciliary ganglion (CG) neurons in monolayer cultures.
For example, ciliary ganglia may be collected from E8 chick embryos, dissociated (yielding approximately 20,000 cells per ganglion) and then diluted in HEBM medium containing 20 percent horse serum as described in Varon et al. (1979, Brain Res. 173:29-45). About fifty microliters of cell suspension containing neurons (2,000 cells) may then be seeded into microliter dishes and putative CNTF activity may be added. Culture plates may then be maintained at 37° C. in 5% CO2 for 24 hours, after which the cultures may be fixed by the addition of 200 μl 2 per cent glutaraldehyde in HEBM medium, and the number of surviving neurons may be determined visually by direct count under phase contrast microscopy.
Chick embryo ciliary ganglion cultures were created and maintained according to the method set forth in (Hughes et al., 1988, Nature 335 : 70-73).
Biological activity of recombinant CNTF was assayed on explants of chick embryo dorsal root ganglia (DRG) and dissociated cultures of ciliary ganglion (CG) neurons as described in Lindsay and Rohrer (1985, Devel. Biol 112:30-48). Briefly, DRG were dissected from chick embryos of 10 days incubation (E10) and 5-6 ganglia were explanted in 1 ml of a collagen gel matrix in 35 mm tissue culture dishes. After the gel had set, 1 ml of tissue culture growth medium F14 (Imperial Labs., U.K.) supplemented with 5% heat-inactivated horse serum (GIBCO) was added before adding human CNTF (1-20 l) to a final concentration of 100 pg to 100 ng/ml. CG were dissected from E8 chick embryos and incubated for 30 min in 0.25% trypsin (Worthington) in calcium- and magnesium-free phosphate buffered saline. The ganglia were then washed three times in F14 medium containing 5% horse serum before being dissociated to a single cell suspension by trituration through the bore of a Pasteur pipette. Enrichment for CG neurons was achieved by plating the cell suspension for 3.5 hr in a 60 mm dish, during which non-neuronal cells (fibroblasts and Schwann cells) attached firmly to the plastic while phase-bright neurons remained in suspension. The purified neurons were plated on polyornithine-laminin-coated 35 mm culture dishes at 8,000-10,000 neurons/dish. In explant cultures CNTF activity was determined by assessing the extent of fiber outgrowth in treated cultures compared to controls. Fiber outgrowth was scored on a scale of 0 to 5+, by comparing cultures to photographs of a dose-response of explanted DRG and NGF. In dissociated CG neuron cultures, CNTF activity was determined by counting at 48 hr the percentage of process-bearing neurons in control and CNTF-treated cultures. In all cases results were derived from triplicate cultures.

[8] = test system: E8 dorsal root ganglion neurons; test: Survival and neurite outgrowth of dorsal root ganglion neurons / DRG assay with E. coli protein extracts; assay type: cell-based; details: protein extracts of E. coli carrying human CNTF sequence in pCP93
Experimental: In addition, protein extracts were prepared from the same cells lysed by treatment with lysozyme followed by three cycles of freezing and thawing. […] No such activity could be detected in control extracts from the same host cells carrying the plasmid vector without the rCNTF gene.
Human CNTF sequence, engineered to lack intron sequences, has been inserted into the pCP93 vector and used to transform competent E. coli.

Molecule | effect on / survival of GABAergic neurons [1] | μg protein dish [2] [μg protein dish] | increase in NF content versus untreated controls [3] | increase in AchE-positive neurons versus untreated controls [4] | increase in CAT activity [5] | CAT Activity [6] [CPM/dish] | Protein [6] [μg/dish] | maximum fiber outgrowth at saturating levels, relative to saturating levels of NGF (E10 chick DRG) | activity towards chick ciliary neurons compared with rat CNTF [7] | CNTF activity in DRG assay [8]
B1 | not able to detect any effect | 20 | did not produced any significant effect | small effect | no effect | 621.25 ± 33.59 | 38 | – | – | –
B2 | – | – | – | – | – | – | – | 50-75% | as active as rat CNTF | CNTF activity
